Measured values taken from patent publication US20230125550A1 (ARCELLX, published 2023).

T1: recombinant human CD123-Fc (human, UniProt P26951 19-305)
T1 construct: not shown: Fc part of CD123-Fc
T1 sequence: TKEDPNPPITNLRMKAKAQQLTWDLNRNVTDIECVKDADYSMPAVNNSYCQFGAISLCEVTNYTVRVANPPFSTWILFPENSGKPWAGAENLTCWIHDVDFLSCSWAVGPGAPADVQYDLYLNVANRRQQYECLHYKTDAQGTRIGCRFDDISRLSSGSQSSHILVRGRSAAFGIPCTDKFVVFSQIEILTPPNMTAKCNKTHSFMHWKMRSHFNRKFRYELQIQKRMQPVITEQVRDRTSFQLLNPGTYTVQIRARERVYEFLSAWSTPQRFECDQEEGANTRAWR

B1: SEQ ID NO 661 (designed binder)
chain: MGSWYEFFDRLDAIYDRLYALGGSEAELASFEAQIAEFEVELQSYKGKGNPEVEALEWEAWAIDEELYAYRHN
B2: SEQ ID NO 655 (designed binder)
chain: MGSWEEFDERLWAISDRLWALGGSEAELAYFEGEIAYFEQNLQTYKGKGNPEVEALQTEALAIDTELWAYRHN
B3: SEQ ID NO 654 (designed binder)
chain: MGSWREFHDRLFAIDGRLWALGGSEAELANFEWDIADFEFELQDYKGKGNPEVEALSWEADAIMQELGAYRHN
B4: SEQ ID NO 662 (designed binder)
chain: MGSWFEFLYRLDAIEDRLWALGGSEAELAEFEQEIAKFESELQSYKGKGNPEVEALEWEAHAIDMELEAYRHN
B5: SEQ ID NO 660 (designed binder)
chain: MGSWHEFDDRLDAIMSRLDALGGSEAELATFEAEIATFEFVLQLYKGKGNPEVEALLAEAYAIDWELEAYRHN
B6: SEQ ID NO 666 (designed binder)
chain: MGSWGEFMDRLEAIDYRLWALGGSEAELAWFESDIAEFEQELQMYKGKGNPEVEALWDEAMAIRDELFAYRHN
B7: SEQ ID NO 672 (designed binder)
chain: MGSWDEFWDRLDAIEDRLFALGGSEAELADFERVIAWFENDLQEYKGKGNPEVEALDNEADAIRIELHAYRHN
B8: SEQ ID NO 670 (designed binder)
chain: MGSWYEFDARLDAIEERLYALGGSEAELAAFEFEIAGFEEALQWYKGKGNPEVEALLKEAEAITDELYAYRHN
B9: SEQ ID NO 657 (designed binder)
chain: MGSWDEFHQRLAAIGDRLWALGGSEAELAYFEWEIATFEWDLQVYKGKGNPEVEALYFEATAIDEELMAYRHN
B10: SEQ ID NO 675 (designed binder)
chain: MGSWFEFEWRLDAIENRLNALGGSEAELAWFEYHIAAFEDSLQHYKGKGNPEVEALEWEAHAIQSELQAYRHN
B11: SEQ ID NO 663 (designed binder)
chain: MGSWLEFEDRLVAIDHRLFALGGSEAELAEFEEEIALFESYLQDYKGKGNPEVEALNWEADAIHAELYAYRHN
B12: SEQ ID NO 674 (designed binder)
chain: MGSWEEFTIRLGAIYWRLFALGGSEAELANFEWFIAEFEYELQPYKGKGNPEVEALVIEANAIDGELQAYRHN
B13: SEQ ID NO 669 (designed binder)
chain: MGSWNEFWERLDAIEWRLFALGGSEAELAFFELDIAWFEEELQWYKGKGNPEVEALIFEAHAITLELDAYRHN
B14: SEQ ID NO 658 (designed binder)
chain: MGSWVEFEYRLDAISDRLWALGGSEAELAFFENEIASFESDLQFYKGKGNPEVEALMFEAEAIDDELHAYRHN
B15: SEQ ID NO 668 (designed binder)
chain: MGSWYEFADRLDAIMDRLVALGGSEAELAYFEWEIAAFEEFLQMYKGKGNPEVEALDEEAEAIKDELMAYRHN
B16: SEQ ID NO 667 (designed binder)
chain: MGSWEEFDDRLDAIEHRLWALGGSEAELADFEGSIAAFESWLQVYKGKGNPEVEALEAEAEAIADELWAYRHN
B17: SEQ ID NO 656 (designed binder)
chain: MGSWEEFEQRLWAIDDRLWALGGSEAELAFFEYEIAEFEMDLQWYKGKGNPEVEALFYEAHAINEELWAYRHN
B18: SEQ ID NO 712 (designed binder)
chain: MGSWIEFEDRLYAIEDRLWALGGSEAELAAFEKEIAAFESELQAYKGKGNPEVEFLRYEAAEIRYWLQAYRHN
B19: SEQ ID NO 690 (designed binder)
chain: MGSWYEFMVRLDAIEERLFALGGSEAELAAFEKEIAAFESELQAYKGKGNPEVEFLREEAASIRYHLQAYRHN
B20: SEQ ID NO 680 (designed binder)
chain: MGSWTEFDMRLDAIWDRLFALGGSEAELAAFEKEIAAFESELQAYKGKGNPEVEELREEAATIRGVLQAYRHN
B21: SEQ ID NO 688 (designed binder)
chain: MGSWFEFVDRLTAIQVRLWALGGSEAELAAFEKEIAAFESELQAYKGKGNPEVEYLREEAALIRYSLQAYRHN
B22: SEQ ID NO 694 (designed binder)
chain: MGSWWEFLDRLDAIEMRLFALGGSEAELAAFEKEIAAFESELQAYKGKGNPEVEYLREEAALIRNMLQAYRHN
B23: SEQ ID NO 679 (designed binder)
chain: MGSWTEFDRRLDAIWDRLFALGGSEAELAAFEKEIAAFESELQAYKGKGNPEVEWLREEAADIRDYLQAYRHN
B24: SEQ ID NO 693 (designed binder)
chain: MGSWVEFEYRLDAITERLLALGGSEAELAAFEKEIAAFESELQAYKGKGNPEVEILREEAAFIRQWLQAYRHN
B25: SEQ ID NO 681 (designed binder)
chain: MGSWEEFHDRLMAIETRLWALGGSEAELAAFEKEIAAFESELQAYKGKGNPEVEWLRYEAADIRDYLQAYRHN
B26: SEQ ID NO 684 (designed binder)
chain: MGSWTEFVWRLDAIEWRLEALGGSEAELAAFEKEIAAFESELQAYKGKGNPEVEFLREEAAEIRDWLQAYRHN
B27: SEQ ID NO 678 (designed binder)
chain: MGSWIEFEVRLDAIWDRLFALGGSEAELAAFEKEIAAFESELQAYKGKGNPEVEYLRDEAADIRQSLQAYRHN
B28: SEQ ID NO 687 (designed binder)
chain: MGSWVEFYDRLDAIEHRLDALGGSEAELAAFEKEIAAFESELQAYKGKGNPEVEWLRDEAAFIRDMLQAYRHN
B29: SEQ ID NO 683 (designed binder)
chain: MGSWMEFIDRLDAIEHRLWALGGSEAELAAFEKEIAAFESELQAYKGKGNPEVEFLREEAAEIRMYLQAYRHN
B30: SEQ ID NO 695 (designed binder)
chain: MGSWWEFEDRLDAIEYRLFALGGSEAELAAFEKEIAAFESELQAYKGKGNPEVEFLREEAAFIRIFLQAYRHN
B31: SEQ ID NO 682 (designed binder)
chain: MGSWVEFRDRLDAIETRLWALGGSEAELAAFEKEIAAFESELQAYKGKGNPEVEWLRYEAAEIRMVLQAYRHN
B32: SEQ ID NO 689 (designed binder)
chain: MGSWFEFLDRLDAIEERLWALGGSEAELAAFEKEIAAFESELQAYKGKGNPEVEWLREEAAVIRDSLQAYRHN
B33: SEQ ID NO 685 (designed binder)
chain: MGSWVEFYDRLYAIEVRLLALGGSEAELAAFEKEIAAFESELQAYKGKGNPEVEFLRQEAAEIRDWLQAYRHN
B34: SEQ ID NO 686 (designed binder)
chain: MGSWYEFYDRLDAIEWRLWALGGSEAELAAFEKEIAAFESELQAYKGKGNPEVEWLRDEAAQIRDFLQAYRHN
B35: SEQ ID NO 676 (designed binder)
chain: MGSWYEFDDRLEAIWDRLGALGGSEAELAAFEKEIAAFESELQAYKGKGNPEVEWLRETAADIRAELQAYRHN
B36: SEQ ID NO 653 (designed binder)
chain: MGSWEEFYYRLHAIDNRLWALGGSEAELAYFEWHIADFELELQDYKGKGNPEVEALSEEATAIFEELWAYRHN
B37: SEQ ID NO 671 (designed binder)
chain: MGSWDEFSERLDAIWGRLEALGGSEAELATFEFHIAEFEHELQYYKGKGNPEVEALQGEAAAIINELYAYRHN
B38: SEQ ID NO 665 (designed binder)
chain: MGSWYEFEDRLDAILYRLLALGGSEAELAWFERDIAFFESELQWYKGKGNPEVEALEWEAMAIDDELFAYRHN
B39: SEQ ID NO 659 (designed binder)
chain: MGSWDEFDTRLDAIFSRLYALGGSEAELAMFEGEIAEFEGSLQHYKGKGNPEVEALDFEAHAIDEELWAYRHN
B40: SEQ ID NO 673 (designed binder)
chain: MGSWDEFDDRLEAIVDRLFALGGSEAELAMFEFEIAQFEHQLQYYKGKGNPEVEALRDEADAIWIELDAYRHN
B41: SEQ ID NO 664 (designed binder)
chain: MGSWYEFESRLDAIVDRLWALGGSEAELAEFEYEIAKFEWELQDYKGKGNPEVEALNWEAGAIEFELYAYRHN

Molecular target: T1, recombinant human CD123-Fc
Assay: phage ELISA, A450 target/A450 IgG1-Fc
Method in brief: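 The ELISA ratio divides target absorbance by IgG1-Fc absorbance and averages this over all screened wells holding a given clone. Phage came from phagemid colonies picked from panning output and were rescued with VCSM13 helper phage in 96-well format. After coating with 1.3 microg/ml goat anti-human IgG1-Fc antibody, wells were loaded with 5 nM recombinant human target or IgG1-Fc, then with 50 microl phage diluted 5× in ELISA blocking buffer, and bound phage were read at 450 nm using HRP-conjugated anti-M13 antibody.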

ELISA_avg	Binder
4.7 ratio	B1
6.5 ratio	B2
5.6 ratio	B3
6.6 ratio	B4
7.7 ratio	B5
4.6 ratio	B6
3.9 ratio	B7
8.9 ratio	B8
3.7 ratio	B9
3.3 ratio	B10
3.9 ratio	B11
3.3 ratio	B12
3 ratio	B13
6.5 ratio	B14
3.3 ratio	B15
4 ratio	B16
5.7 ratio	B17
4 ratio	B18
4.1 ratio	B19
3.1 ratio	B20
5.1 ratio	B21

ELISA_avg	Binder
9 ratio	B22
9.2 ratio	B23
3.9 ratio	B24
4.3 ratio	B25
4.2 ratio	B26
4.2 ratio	B27
3.4 ratio	B28
4.3 ratio	B29
4.9 ratio	B30
4.2 ratio	B31
12.2 ratio	B32
5.8 ratio	B33
6.2 ratio	B34
3.3 ratio	B35
3 ratio	B36
3.2 ratio	B37
4.3 ratio	B38
4 ratio	B39
5.6 ratio	B40
5.1 ratio	B41
